The results in this text go back to patent publication US20240139289A1 (EXTEND BIOSCIENCES, published 2024).

Experiment [1] deals with T1, Vitamin D binding protein (DBP) (Homo sapiens (Human)) (UniProt P02774).
T1 sequence: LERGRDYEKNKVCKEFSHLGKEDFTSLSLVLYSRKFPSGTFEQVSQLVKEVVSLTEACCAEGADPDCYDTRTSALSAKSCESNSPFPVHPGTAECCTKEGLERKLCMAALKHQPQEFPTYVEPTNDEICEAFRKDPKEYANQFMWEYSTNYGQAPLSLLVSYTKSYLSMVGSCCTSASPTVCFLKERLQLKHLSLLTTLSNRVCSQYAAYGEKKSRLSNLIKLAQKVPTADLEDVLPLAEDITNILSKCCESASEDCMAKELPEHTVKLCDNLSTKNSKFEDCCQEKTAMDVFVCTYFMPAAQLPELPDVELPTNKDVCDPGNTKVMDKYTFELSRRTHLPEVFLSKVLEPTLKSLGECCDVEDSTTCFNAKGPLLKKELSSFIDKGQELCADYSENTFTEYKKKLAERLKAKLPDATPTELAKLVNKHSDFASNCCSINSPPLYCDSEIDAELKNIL
Put plainly: BLI (Octet Red96), biotinylated EXT607 on streptavidin tips, DBP 0-75 µM, steady-state fit. In general terms: In BLI a coated tip is dipped into the sample, and binding shifts an interference pattern.

Experiment [2] has as its target T2, human parathyroid hormone receptor 1 (PTHR1) (human, UniProt Q03431 27-593).
T2 sequence (looked up): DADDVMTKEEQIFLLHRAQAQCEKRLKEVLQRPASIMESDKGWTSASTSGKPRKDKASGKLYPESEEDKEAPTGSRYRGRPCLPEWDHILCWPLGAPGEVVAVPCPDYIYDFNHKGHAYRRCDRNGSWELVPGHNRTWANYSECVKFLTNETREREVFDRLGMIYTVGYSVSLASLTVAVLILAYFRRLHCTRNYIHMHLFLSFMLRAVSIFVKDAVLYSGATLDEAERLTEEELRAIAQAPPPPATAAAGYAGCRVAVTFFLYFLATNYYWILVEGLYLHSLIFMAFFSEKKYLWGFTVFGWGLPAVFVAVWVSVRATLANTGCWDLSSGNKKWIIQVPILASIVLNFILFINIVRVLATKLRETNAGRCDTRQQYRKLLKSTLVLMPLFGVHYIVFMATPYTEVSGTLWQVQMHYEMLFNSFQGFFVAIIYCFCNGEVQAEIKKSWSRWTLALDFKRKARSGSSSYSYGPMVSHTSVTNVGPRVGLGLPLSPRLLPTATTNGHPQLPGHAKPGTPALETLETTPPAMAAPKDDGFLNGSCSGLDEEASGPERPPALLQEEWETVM
Put plainly: cell-based or functional assay.

Experiment [3] has as its target T1, Vitamin D binding protein (DBP) (Homo sapiens (Human)). Put plainly: BLI (Octet Red96), biotinylated EXT607 on streptavidin tips, DBP 0-75 µM.
Experiment [4] shares this target. Put plainly: BLI (Octet Red96), biotinylated EXT608 on streptavidin tips, DBP 0-75 µM, steady-state fit.
Experiment [5] shares this target. Put plainly: BLI (Octet Red96), biotinylated EXT608 on streptavidin tips, DBP 0-75 µM.
The target in experiment [6] is T2, human parathyroid hormone receptor 1 …. Put plainly: cell-based or functional assay. The source holds these as a separate data set.

Ends that are not written are not given here.

B1: EXT607 (PTH(1-34)-Cys-PEG36-25-hydroxy-vitamin D conjugate, C-terminal acid, R = OH) (peptide)
peptide: SVSEIQLMHNLGKHLNSMERVEWLRKKLQDVHNFC
modifications: C-terminal Cys (position 35) carries succinimido-propionylamino-PEG36-propionyl-aminopropyl-25-hydroxy-Vitamin D on its thiol; C-terminus is free acid (-OH)
By Kd is commonly meant the free concentration of one partner at which half of the binding sites on the other are occupied at equilibrium, for simple one-to-one binding. In experiment [1], B1 showed a Kd of 8100 nM. Besides, in experiment [2], the “EC50, cell-based calcium flux assay in agonist mode (percent efficacy)” value was found to be 21 nM. In addition, the maximum response (BLI shift) in experiment [3] is 1.79 nm.

B2: EXT608 (PTH(1-34)-Cys-PEG36-25-hydroxy-vitamin D conjugate, C-terminal amide, R = NH2) (peptide)
peptide: SVSEIQLMHNLGKHLNSMERVEWLRKKLQDVHNFC
modifications: C-terminal Cys (position 35) carries succinimido-propionylamino-PEG36-propionyl-aminopropyl-25-hydroxy-Vitamin D on its thiol; C-terminal amide (-NH2)
On to B2, for which, in experiment [4], the Kd amounted to 5200 nM. In addition, the maximum response (BLI shift) in experiment [5] is 1.79 nm. Moreover, the “EC50, cell-based calcium flux assay in agonist mode (percent efficacy)” value in experiment [2] was 22 nM. Moreover, the “PTHR1 EC50, calcium mobilization assay in agonist mode” value in experiment [6] came to 28.6 nM.

B3: EXT617 (PTH-PEG20 kDa-VitD) (peptide)
peptide: SVSEIQLMHNLGKHLNSMERVEWLRKKLQDVHNFC
modifications: C-terminal Cys thiol conjugated through maleimide-PEG ~20,000 Da (~455 units) to VitD-NH2 (25-hydroxy vitamin D, C3 position); C-terminal amide
B3: in experiment [2], the “fold increase of PTHR1 EC50 against the conjugates with shorter PEG linkers” value is around 7 fold. Besides, the “PTHR1 EC50, calcium mobilization assay in agonist mode” value in experiment [6] stood at 221 nM.

B4: EXT616 (PTH-PEG10 kDa-VitD) (peptide)
peptide: SVSEIQLMHNLGKHLNSMERVEWLRKKLQDVHNFC
modifications: C-terminal Cys thiol conjugated through maleimide-PEG ~10,000 Da (~227 units) to VitD-NH2 (25-hydroxy vitamin D, C3 position); C-terminal amide
With B4, the “PTHR1 EC50, calcium mobilization assay in agonist mode” value in experiment [6] amounted to 33.6 nM. Still for that read-out and setting: under SVSEIQLMHNLGKHLNSMERVEWLRKKLQDVHNFC-NH2 (not fully specified (residue 35); also: acetate salt) [EXT611 (PTH-cys-PEG12-VitD)] stands 32.3 nM; under SVSEIQLMHNLGKHLNSMERVEWLRKKLQDVHNFC-NH2 (not fully specified (residue 35); also: acetate salt) [EXT606 (PTH-cys-PEG24-VitD)], 30.5 nM; under SVSEIQLMHNLGKHLNSMERVEWLRKKLQDVHNFC-NH2 (not fully specified (residue 35); also: acetate salt) [EXT615 (PTH-PEG5 kDa-VitD)], 29.9 nM.
